Laboratory results as given in patent publication CN117412992A (NOVIMMUNE SA, dated 2024).
Each block holds one binder with its values, some of them ahead of it.

Experiments:
[1] = biological target: T1, recombinant human PD-L1 soluble protein, biotinylated (ACROBiosystems) (human, UniProt Q9NZQ7 19-238, biotinylated); test: BLI (Table 7) and ELISA (Fig. 1A) on recombinant PD-L1
T1 construct: Bought soluble protein; also called 重组人PD-L1; 人PD-L1

[2] = biological target: T2, human CD47 on cells (Raji, Nalm-6, HT-1080 tumour cells; human red blood cells) (human, UniProt Q08722 19-323); test: flow cytometry on human red blood cells (CD47+, PD-L1-)
T2 construct: whole, on cells

[3] = biological target: T3, human PD-L1 on cells (hPD-L1-transfected CHO cells; IFNg-induced HT-1080 tumour cells) (human, UniProt Q9NZQ7 19-290); test: flow cytometry on IFNg-preactivated PD-L1+ CD47+ HT-1080 cells, co-engagement of both targets
T3 construct: whole, on cells

[4] = biological target: T3, human PD-L1 on cells …; test: cell-based competition: inhibition of human PD-1-moFc binding to IFNg-induced PD-L1+ CD47+ HT-1080 cells, CellInsight CX5

binding result [1]: binds
binding result [2]: binds
binding result [3]: binds
B1: K2xS23 CD47xPD-L1 bispecific antibody (bispecific antibody, human IgG1, kappa, lambda)
heavy: not shown
light 1: not shown
light 2: QSALTQPASVSGSPGQSITISCTGTSSDVAKIPLVSWYQQHPGKAPKLMIYFASLRPSGVSNRFSGSKSGNTASLTISGLQAEDEADYYCSSWDNAGDGHVFGGGTKLTVLGQPKAAPSVTLFPPSSEELQANKATLVCLISDFYPGAVTVAWKADSSPVKAGVETTTPSKQSNNKYAASSYLSLTPEQWKSHRSYSCQVTHEGSTVEKTVAPTECS
notes: kappa-lambda body with a common heavy chain; also called K2xS23 bsAb

IC50 [4]: 2.52 pM
B2: S79 anti-PD-L1 mAb (antibody, human IgG1, lambda, V domains shown)
VH: not shown
VL: QSALTQPASVSGSPGQSITISCTGTSSDVFRPPLVSWYQQHPGKAPKLMIYFASLRPSGVSNRFSGSKSGNTASLTISGLQAEDEADYYCSSWDHTGDGHVFGGGTKLTVLG
notes: also called S79_Sc3_1G7_VLCL2 aPDL1 IGLV2-23; S79抗PD-L1 mAb

IC50 [4]: 0.84 pM
B3: S100 anti-PD-L1 mAb (antibody, human IgG1, lambda, V domains shown)
VH: not shown
VL: QSVLTQPPSASGTPGQRVTISCSGSSSNIENKPVNWYQQLPGTAPKLLIYHDTTRPSGVPDRFSGSKSGTSASLAISGLQSEDEADYYCAAWDFATWPATEVFGGGTKLTVLG
notes: bivalent monospecific anti-PD-L1 IgG; also called S100抗PD-L1 mAb
